Data as given in article PMC9482650, “Quantitative fragmentomics allow affinity mapping of interactomes” (Nature Communications, 2022).

T1: APBA1_1, Q02410
T1 sequence (Q02410 651-752, limits assumed, looked up): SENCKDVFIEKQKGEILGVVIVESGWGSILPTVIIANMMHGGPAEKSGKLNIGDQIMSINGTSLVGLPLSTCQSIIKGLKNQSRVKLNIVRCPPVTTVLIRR

T2: GRIP1_2, Q9Y3R0
T2 sequence (Q9Y3R0 145-248, limits assumed, looked up): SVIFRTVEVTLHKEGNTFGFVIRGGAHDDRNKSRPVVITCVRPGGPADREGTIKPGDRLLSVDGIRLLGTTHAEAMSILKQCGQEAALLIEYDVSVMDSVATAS

T3: LNX2_3, Q8N448
T3 sequence (Q8N448 463-564, limits assumed, looked up): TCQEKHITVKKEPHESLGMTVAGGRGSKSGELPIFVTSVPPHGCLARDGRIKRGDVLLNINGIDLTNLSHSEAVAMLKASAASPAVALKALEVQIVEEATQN

T4: MPDZ_12, O75970
T4 sequence (O75970 1857-1958, limits assumed, looked up): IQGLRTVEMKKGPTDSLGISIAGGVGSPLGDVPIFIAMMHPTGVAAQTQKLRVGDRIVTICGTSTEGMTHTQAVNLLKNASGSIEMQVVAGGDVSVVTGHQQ

T5: MPDZ_5, O75970
T5 sequence (O75970 695-796, limits assumed, looked up): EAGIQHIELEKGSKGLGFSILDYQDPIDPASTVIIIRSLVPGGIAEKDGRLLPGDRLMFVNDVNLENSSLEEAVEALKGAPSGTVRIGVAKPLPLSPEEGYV

T6: PDZD2_2, O15018
T6 sequence (O15018 329-429, limits assumed, looked up): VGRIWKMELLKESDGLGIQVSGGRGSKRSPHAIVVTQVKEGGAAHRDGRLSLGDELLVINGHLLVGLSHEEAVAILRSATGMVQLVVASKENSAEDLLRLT

T7: PTPN13_1, Q12923
T7 sequence (Q12923 1088-1188, limits assumed, looked up): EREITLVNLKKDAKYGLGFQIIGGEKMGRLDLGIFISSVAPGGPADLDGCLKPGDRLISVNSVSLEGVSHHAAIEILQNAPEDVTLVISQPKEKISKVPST

T8: RAPGEF6, Q8TEU7
T8 sequence (Q8TEU7 525-625, limits assumed, looked up): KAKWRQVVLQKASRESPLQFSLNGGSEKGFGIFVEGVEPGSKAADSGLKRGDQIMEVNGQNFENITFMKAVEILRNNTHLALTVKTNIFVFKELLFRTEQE

T9: RHPN1, Q8TCX5
T9 sequence (Q8TCX5 508-602, limits assumed, looked up): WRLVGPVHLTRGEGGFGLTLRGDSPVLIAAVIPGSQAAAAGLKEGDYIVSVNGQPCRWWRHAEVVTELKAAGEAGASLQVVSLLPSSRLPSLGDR

T10: TIAM2, Q8IVF5
T10 sequence (Q8IVF5 885-986, limits assumed, looked up): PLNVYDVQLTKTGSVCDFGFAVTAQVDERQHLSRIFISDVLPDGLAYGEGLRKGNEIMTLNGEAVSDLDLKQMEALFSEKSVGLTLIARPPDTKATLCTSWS

B1: MCC, P23508 (peptide)
chain: SRPHTNETSL
B2: EXOC4, Q96A65 (peptide)
chain: ATKDKKITTV
B3: FKBP4, Q02790 (peptide)
chain: GSQSQVETEA
B4: CRHR1, P34998 (peptide)
chain: FHSIKQSTAV

Each binder was assayed against T1, APBA1_1, Q02410 (assay: holdup assay). Settings: plain residues with an end cap or a label only (N-terminal biotin on a linker: ado-ado).
Design: key: below the threshold = too weak to quantify, mostly under pKd 3.1 to 4

Row | pKd | Binder
1 | below the threshold | B1
2 | below the threshold | B2
3 | below the threshold | B3
4 | below the threshold | B4

The binders below were run against DLG1_1, Q12959 (assay: holdup assay). Settings: plain residues with an end cap or a label only (N-terminal biotin on a linker: ado-ado).
Design: key: below the threshold = too weak to quantify, mostly under pKd 3.1 to 4

Row | pKd | Binder
5 | 3.72 | B1
6 | 5.05 | B2
7 | below the threshold | B3
8 | 4.39 | B4

What follows are binders tested against DLG2_3, Q15700 (assay: holdup assay). Settings: plain residues with an end cap or a label only (N-terminal biotin on a linker: ado-ado).
Design: key: below the threshold = too weak to quantify, mostly under pKd 3.1 to 4

Row | pKd | Binder
9 | 3.95 | B1
10 | 4.58 | B2
11 | 3.82 | B3
12 | 4.54 | B4

Each binder was assayed against DLG4_1, P78352 (assay: holdup assay). Settings: plain residues with an end cap or a label only (N-terminal biotin on a linker: ado-ado).
Chain of DLG4_1, P78352 (P78352 62-152): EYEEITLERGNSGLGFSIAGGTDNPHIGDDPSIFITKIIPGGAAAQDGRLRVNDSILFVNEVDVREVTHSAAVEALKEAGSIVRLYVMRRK
Design: key: below the threshold = too weak to quantify, mostly under pKd 3.1 to 4

Row | pKd | Binder
13 | below the threshold | B1
14 | 5.25 | B2
15 | below the threshold | B3
16 | 4.56 | B4

Each binder was assayed against DLG4_3, P78352 (assay: holdup assay). Settings: plain residues with an end cap or a label only (N-terminal biotin on a linker: ado-ado).
Chain of DLG4_3, P78352 (P78352 306-403): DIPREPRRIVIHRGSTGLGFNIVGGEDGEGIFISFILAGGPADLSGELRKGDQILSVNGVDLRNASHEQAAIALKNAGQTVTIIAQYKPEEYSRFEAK
Design: key: below the threshold = too weak to quantify, mostly under pKd 3.1 to 4

Row | pKd | Binder
17 | 3.95 | B1
18 | 4.5 | B2
19 | below the threshold | B3
20 | 4.43 | B4

These binders were tested against FRMPD2_1, Q68DX3 (assay: holdup assay). Settings: plain residues with an end cap or a label only (N-terminal biotin on a linker: ado-ado).
Chain of FRMPD2_1, Q68DX3 (Q68DX3 770-861): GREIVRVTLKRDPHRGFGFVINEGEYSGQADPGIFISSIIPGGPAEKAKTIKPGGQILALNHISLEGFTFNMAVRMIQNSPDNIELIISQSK
Design: key: below the threshold = too weak to quantify, mostly under pKd 3.1 to 4

Row | pKd | Binder
21 | below the threshold | B1
22 | 3.54 | B2
23 | 3.53 | B3
24 | 3.93 | B4

These binders were tested against FRMPD3, Q5JV73 (assay: holdup assay). Settings: plain residues with an end cap or a label only (N-terminal biotin on a linker: ado-ado).
Chain of FRMPD3, Q5JV73 (Q5JV73 12-100): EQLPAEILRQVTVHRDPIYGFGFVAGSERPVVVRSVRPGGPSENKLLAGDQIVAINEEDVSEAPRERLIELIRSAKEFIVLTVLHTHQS
Design: key: below the threshold = too weak to quantify, mostly under pKd 3.1 to 4

Row | pKd | Binder
25 | below the threshold | B1
26 | below the threshold | B2
27 | below the threshold | B3
28 | below the threshold | B4

What follows are binders tested against T2, GRIP1_2, Q9Y3R0 (assay: holdup assay). Settings: plain residues with an end cap or a label only (N-terminal biotin on a linker: ado-ado).
Design: key: below the threshold = too weak to quantify, mostly under pKd 3.1 to 4

Row | pKd | Binder
29 | below the threshold | B1
30 | below the threshold | B2
31 | below the threshold | B3
32 | below the threshold | B4

What follows are binders tested against GRIP2_3, Q9C0E4 (assay: holdup assay). Settings: plain residues with an end cap or a label only (N-terminal biotin on a linker: ado-ado).
Chain of GRIP2_3, Q9C0E4 (Q9C0E4 238-339): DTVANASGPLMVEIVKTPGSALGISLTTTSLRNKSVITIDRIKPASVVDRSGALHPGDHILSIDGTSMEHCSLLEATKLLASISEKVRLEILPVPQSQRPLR
Design: key: below the threshold = too weak to quantify, mostly under pKd 3.1 to 4

Row | pKd | Binder
33 | below the threshold | B1
34 | 3.51 | B2
35 | below the threshold | B3
36 | below the threshold | B4

The binders below were run against GRIP2_7, Q9C0E4 (assay: holdup assay). Settings: plain residues with an end cap or a label only (N-terminal biotin on a linker: ado-ado).
Chain of GRIP2_7, Q9C0E4 (Q9C0E4 934-1023): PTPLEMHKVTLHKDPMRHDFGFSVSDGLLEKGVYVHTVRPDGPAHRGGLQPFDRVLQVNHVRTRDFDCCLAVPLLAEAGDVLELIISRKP
Design: key: below the threshold = too weak to quantify, mostly under pKd 3.1 to 4

Row | pKd | Binder
37 | below the threshold | B1
38 | 3.52 | B2
39 | below the threshold | B3
40 | below the threshold | B4

The binders below were run against HTRA2, O43464 (assay: holdup assay). Settings: plain residues with an end cap or a label only (N-terminal biotin on a linker: ado-ado).
Chain of HTRA2, O43464 (O43464 355-458): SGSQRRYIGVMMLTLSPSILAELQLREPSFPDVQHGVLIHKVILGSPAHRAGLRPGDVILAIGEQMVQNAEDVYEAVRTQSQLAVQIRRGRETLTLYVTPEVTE
Design: key: below the threshold = too weak to quantify, mostly under pKd 3.1 to 4

Row | pKd | Binder
41 | below the threshold | B1
42 | below the threshold | B2
43 | below the threshold | B3
44 | below the threshold | B4

The binders below were run against Inadl_1, Q8NI35 (assay: holdup assay). Settings: plain residues with an end cap or a label only (N-terminal biotin on a linker: ado-ado).
Chain of Inadl_1, Q8NI35 (Q8NI35 113-229): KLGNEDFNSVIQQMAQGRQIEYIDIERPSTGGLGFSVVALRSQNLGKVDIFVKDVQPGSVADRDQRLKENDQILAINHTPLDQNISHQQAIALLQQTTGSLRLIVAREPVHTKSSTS
Design: key: below the threshold = too weak to quantify, mostly under pKd 3.1 to 4

Row | pKd | Binder
45 | below the threshold | B1
46 | below the threshold | B2
47 | below the threshold | B3
48 | below the threshold | B4

Each binder was assayed against LAP2, Q96RT1 (assay: holdup assay). Settings: plain residues with an end cap or a label only (N-terminal biotin on a linker: ado-ado).
Chain of LAP2, Q96RT1 (Q96RT1 other isoform, or with tags, fused parts or gaps): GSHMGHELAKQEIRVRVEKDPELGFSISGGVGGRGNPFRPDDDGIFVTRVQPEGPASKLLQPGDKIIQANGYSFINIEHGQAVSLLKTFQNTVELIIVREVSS
Design: key: below the threshold = too weak to quantify, mostly under pKd 3.1 to 4

Row | pKd | Binder
49 | below the threshold | B1
50 | 3.54 | B2
51 | below the threshold | B3
52 | 3.85 | B4

Each binder was assayed against LNX1_2, Q8TBB1 (assay: holdup assay). Settings: plain residues with an end cap or a label only (N-terminal biotin on a linker: ado-ado).
Chain of LNX1_2, Q8TBB1 (Q8TBB1 371-470): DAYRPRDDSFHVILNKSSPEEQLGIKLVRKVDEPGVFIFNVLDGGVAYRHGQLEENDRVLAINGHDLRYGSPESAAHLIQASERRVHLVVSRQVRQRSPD
Design: key: below the threshold = too weak to quantify, mostly under pKd 3.1 to 4

Row | pKd | Binder
53 | below the threshold | B1
54 | 4.1 | B2
55 | below the threshold | B3
56 | below the threshold | B4

Each binder was assayed against T3, LNX2_3, Q8N448 (assay: holdup assay). Settings: plain residues with an end cap or a label only (N-terminal biotin on a linker: ado-ado).
Design: key: below the threshold = too weak to quantify, mostly under pKd 3.1 to 4

Row | pKd | Binder
57 | below the threshold | B1
58 | 3.48 | B2
59 | below the threshold | B3
60 | below the threshold | B4

Each binder was assayed against MAGI2_2, Q86UL8 (assay: holdup assay). Settings: plain residues with an end cap or a label only (N-terminal biotin on a linker: ado-ado).
Chain of MAGI2_2, Q86UL8 (Q86UL8 410-522): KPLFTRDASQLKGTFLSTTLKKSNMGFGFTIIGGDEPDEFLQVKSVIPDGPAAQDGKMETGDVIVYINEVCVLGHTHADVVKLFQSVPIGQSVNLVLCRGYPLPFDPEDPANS
Design: key: below the threshold = too weak to quantify, mostly under pKd 3.1 to 4

Row | pKd | Binder
61 | 3.64 | B1
62 | 5.52 | B2
63 | below the threshold | B3
64 | 5.03 | B4

What follows are binders tested against MAST2, Q6P0Q8 (assay: holdup assay). Settings: plain residues with an end cap or a label only (N-terminal biotin on a linker: ado-ado).
Chain of MAST2, Q6P0Q8 (Q6P0Q8 1099-1202): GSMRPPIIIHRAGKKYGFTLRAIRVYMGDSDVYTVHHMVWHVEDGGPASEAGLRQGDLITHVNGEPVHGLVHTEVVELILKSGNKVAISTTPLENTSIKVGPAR
Design: key: below the threshold = too weak to quantify, mostly under pKd 3.1 to 4

Row | pKd | Binder
65 | 5.66 | B1
66 | 4.92 | B2
67 | below the threshold | B3
68 | 5.35 | B4

The binders below were run against T4, MPDZ_12, O75970 (assay: holdup assay). Settings: plain residues with an end cap or a label only (N-terminal biotin on a linker: ado-ado).
Design: key: below the threshold = too weak to quantify, mostly under pKd 3.1 to 4

Row | pKd | Binder
69 | below the threshold | B1
70 | below the threshold | B2
71 | 3.52 | B3
72 | below the threshold | B4

The binders below were run against T5, MPDZ_5, O75970 (assay: holdup assay). Settings: plain residues with an end cap or a label only (N-terminal biotin on a linker: ado-ado).
Design: key: below the threshold = too weak to quantify, mostly under pKd 3.1 to 4

Row | pKd | Binder
73 | below the threshold | B1
74 | below the threshold | B2
75 | below the threshold | B3
76 | below the threshold | B4

What follows are binders tested against NHERF4_1, Q86UT5-2 (assay: holdup assay). Settings: plain residues with an end cap or a label only (N-terminal biotin on a linker: ado-ado).
Chain of NHERF4_1, Q86UT5-2 (Q86UT5 other isoform, or with tags, fused parts or gaps): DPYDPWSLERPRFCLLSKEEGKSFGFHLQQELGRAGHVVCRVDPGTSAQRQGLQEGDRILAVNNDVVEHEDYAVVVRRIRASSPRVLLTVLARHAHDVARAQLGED
Design: key: below the threshold = too weak to quantify, mostly under pKd 3.1 to 4

Row | pKd | Binder
77 | 4.12 | B1
78 | 3.64 | B2
79 | 3.97 | B3
80 | 3.81 | B4

The binders below were run against NOS1, P29475 (assay: holdup assay). Settings: plain residues with an end cap or a label only (N-terminal biotin on a linker: ado-ado).
Chain of NOS1, P29475 (P29475 9-101): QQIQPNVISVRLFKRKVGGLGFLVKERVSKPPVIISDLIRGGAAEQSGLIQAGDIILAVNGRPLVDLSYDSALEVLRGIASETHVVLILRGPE
Design: key: below the threshold = too weak to quantify, mostly under pKd 3.1 to 4

Row | pKd | Binder
81 | below the threshold | B1
82 | 3.69 | B2
83 | below the threshold | B3
84 | 4.19 | B4

What follows are binders tested against PARD3_3, Q8TEW0 (assay: holdup assay). Settings: plain residues with an end cap or a label only (N-terminal biotin on a linker: ado-ado).
Chain of PARD3_3, Q8TEW0 (Q8TEW0 582-685): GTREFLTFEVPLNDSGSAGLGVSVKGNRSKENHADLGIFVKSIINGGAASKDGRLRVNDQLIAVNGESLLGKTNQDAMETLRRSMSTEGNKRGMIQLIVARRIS
Design: key: below the threshold = too weak to quantify, mostly under pKd 3.1 to 4

Row | pKd | Binder
85 | below the threshold | B1
86 | below the threshold | B2
87 | below the threshold | B3
88 | below the threshold | B4

Each binder was assayed against T6, PDZD2_2, O15018 (assay: holdup assay). Settings: plain residues with an end cap or a label only (N-terminal biotin on a linker: ado-ado).
Design: key: below the threshold = too weak to quantify, mostly under pKd 3.1 to 4

Row | pKd | Binder
89 | below the threshold | B1
90 | 3.88 | B2
91 | below the threshold | B3
92 | 4.48 | B4

These binders were tested against T7, PTPN13_1, Q12923 (assay: holdup assay). Settings: plain residues with an end cap or a label only (N-terminal biotin on a linker: ado-ado).
Design: key: below the threshold = too weak to quantify, mostly under pKd 3.1 to 4

Row | pKd | Binder
93 | below the threshold | B1
94 | below the threshold | B2
95 | below the threshold | B3
96 | below the threshold | B4

What follows are binders tested against T8, RAPGEF6, Q8TEU7 (assay: holdup assay). Settings: plain residues with an end cap or a label only (N-terminal biotin on a linker: ado-ado).
Design: key: below the threshold = too weak to quantify, mostly under pKd 3.1 to 4

Row | pKd | Binder
97 | below the threshold | B1
98 | below the threshold | B2
99 | below the threshold | B3
100 | below the threshold | B4

What follows are binders tested against T9, RHPN1, Q8TCX5 (assay: holdup assay). Settings: plain residues with an end cap or a label only (N-terminal biotin on a linker: ado-ado).
Design: key: below the threshold = too weak to quantify, mostly under pKd 3.1 to 4

Row | pKd | Binder
101 | 4.64 | B1
102 | 4.08 | B2
103 | 3.77 | B3
104 | 3.79 | B4

What follows are binders tested against SNX27, Q96L92 (assay: holdup assay). Settings: plain residues with an end cap or a label only (N-terminal biotin on a linker: ado-ado).
Design: key: below the threshold = too weak to quantify, mostly under pKd 3.1 to 4

Row | pKd | Binder
105 | 5.72 | B1
106 | 4.38 | B2
107 | below the threshold | B3
108 | 4.91 | B4

Each binder was assayed against T10, TIAM2, Q8IVF5 (assay: holdup assay). Settings: plain residues with an end cap or a label only (N-terminal biotin on a linker: ado-ado).
Design: key: below the threshold = too weak to quantify, mostly under pKd 3.1 to 4

Row | pKd | Binder
109 | below the threshold | B1
110 | below the threshold | B2
111 | 4.04 | B3
112 | below the threshold | B4
